Reference: US20260193363A1 (US Dept. of Health and Human Services, published 2026)
Substitutions are numbered along the chain they refer to.

B1: monoclonal antibody 3D10 (antibody, V domains shown)
VH: QVQLKQSGPGLVQPSQSLSIICTVSGFSLTRNGVHWVRQSPGKGLEWVGVIWRSGRTDYDAAFMSRLSITKDNSKSQVFFKMNSLQADDTAIYYCVKNGDDGNYGTYWGQGTLVTVSA
VL: DIVMSQSPSSLGVSVGEKVTMSCKSSQSLLDSRNQKNYLAWYQQKPGQSPKLLIYWASTRESGVPDRFTGSGSGTEFTLTISSVKAEDLAIYYCQQYYNYPYTFGGGTKLEIT
B2: monoclonal antibody 9G11 (antibody, V domains shown)
VH: B1 VH with I21T, S54G
VL: B1 VL
B3: 40H3 MMAE antibody drug conjugate (antibody, V domains shown)
VH: QVQLKQSGPGLVQPSQSLSITCTVSGFSLTNYGIHWLRQSPGKGLEWLGMMWRGGGTDYNAAFISRLTITKDTSKSQVFFRMNNLQTNDTAIYYCARKGVGMGLGYWGQGTSVTVSS
VL: DIQMTQSPASQSASLGESVTITCLASQTIGTWVAWYQQKPGRSPQLLIYGATNLADGVPSRFSGSGSGTKFSFKISSLQAEDFVSYYCQQLYSNPYTFGGGTKLEIK
B4: monoclonal antibody 40H3 (antibody, V domains shown)
VH: B3 VH
VL: B3 VL
notes: also called ma40H3 GS; 40H3 (full length antibody)
B5: 40H3 DM1 antibody drug conjugate (antibody, V domains shown)
VH: B3 VH
VL: B3 VL
B6: monoclonal antibody 11E11 (antibody, V domains shown)
VH: QVQLKQSGPSLVQPSQSLSITCTVSGFSLTNYGVHWIRQSPGKGLEWLGVKWRGGRTDYNAAFMSRLSITRDNSRSQVFFKMNSLQTDDTAIYYCAKNGPFGNFAGYWGQGTLVTVSA
VL: DIVMSQSPSSLAVSVGEKVSLTCKSSQSLLDNQKHYLAWYQQKPGQSPKLLIYWASTRESGVPDRFTGSGSGTEFTLTISSVKAEDLAVYYCQQFYNYPYTFGGGTKLEIK
B7: monoclonal antibody 1D9 (antibody, V domains shown)
VH: B6 VH with P9R, N31D, K51I, G54S, A62V, R71K, R75K, S84G, L113P, T115A
VL: DIVMSQSPSSLAVSVGEKVTMRCRSSQSLLDSYHQKNYLAWYLQKPGQSPKLLIYWASTRESGVPDRFTGSGSGTDFTLTISSVKAEDLAVYYCQEYYRYPYTFGGGTKLEIK
B8: monoclonal antibody 11G3 (antibody, V domains shown)
VH: B6 VH with I37V, K51M, R71K, T90A, A118T
VL: B6 VL with A12P, Q27R
B9: monoclonal antibody 4A4 (antibody, V domains shown)
VH: QVQLKQSGRSLVQPSQSLSITCTVSGFSLTDYGVHWIRQSPGKGLEWLGVIWRSGRTDYNAVFMSRLSITKDNSKSQVFFKMNGLLIEDTAIYYCAKNGPFGNFAGYWGQGTPVAVSA
VL: B7 VL with V91A

Key:
[1] = target: T1, EGFR overexpressed on cancer cell lines MDA-MB-468 and A431 (human, UniProt P00533 25-1210); assay: flow cytometry, antibodies added at 2 µg/ml, A431 cells
T1 construct: whole, on cells; also called overexpressed EGFR; cancer-expressed EGFR

[2] = target: T2, wild-type EGFR extracellular domain, His-tagged (human, UniProt P00533 25-645); assay: ELISA, hybridoma supernatant on His-tagged ECD on nickel-coated 96-well plate, OD450
T2 construct: extracellular domain; also called wtEGFR-His; EGFRwt ECD

[3] = target: T1, EGFR overexpressed on cancer cell lines …; assay: flow cytometry, antibodies added at 2 µg/ml, MDA-MB-468 cells
[4] = target: T3, EGFRvIII on F98npEGFRvIII cells (rat glioma F98 transfected with nonphosphorylated EGFRvIII); assay: flow cytometry, antibodies added at 2 µg/ml, F98-npEGFRvIII cells
T3 construct: whole, on cells; also called F98-EGFRvIII

[5] = target: T2, wild-type EGFR extracellular domain, …; assay: ELISA, purified antibody on His-tagged ECD, OD450
[6] = target: EGFRvIII on DKMG-EGFRvIII cells (human glioblastoma line DKMG transduced with EGFRvIII); assay: cell-based or functional assay
[7] = target: T4, EGFRvIII extracellular domain, His-tagged (human); assay: BLI (Octet Red96), His-tagged antigen on Ni-NTA biosensors, antibody in solution, 30 C
T4 construct: extracellular domain; also called EGFRvIII-His; EGFRvIII-HIS

[8] = target: T5, wild-type EGFR on F98EGFR cells (rat glioma F98 transfected with full-length EGFR) (UniProt P00533 25-1210, limits assumed); assay: flow cytometry, antibodies added at 2 µg/ml, F98-EGFR cells
T5 construct: whole, on cells; also called wtEGFR on transfected F98 cells

[9] = target: T6, wtEGFR at physiological levels on WI-38 cells (human, UniProt P00533 25-1210); assay: flow cytometry, antibodies added at 2 µg/ml, WI-38 cells
T6 construct: whole, on cells; also called normal cells

Binder | Median : PE-A [1] | binding result [2] | Median : PE-A [3] | Median : PE-A [4] | binding result [5] | IC50 (nM), cell viability, DKMG EGFRvIII cells [6] | Kd [7] | koff [7] | kon [7] | Median : PE-A [8] | Median : PE-A [9]
B1 | 196 | no binding | 205 | 1420 |  |  |  |  |  |  | 
B2 | 160 |  | 166 | 1010 | no binding (tested: 5 ng/ml) |  |  |  |  |  | 
B3 |  |  |  |  |  | 1.9 nM |  |  |  |  | 
B4 | 3160 |  | 2140 | 1120 |  |  | 0.27 nM | 4.51e-05 s⁻¹ | 167000 M⁻¹ s⁻¹ |  | 
B5 |  |  |  |  |  | 0.56 nM |  |  |  |  | 
B6 | 274 |  | 216 | 1440 | no binding (tested: 5 ng/ml) |  |  |  |  |  | 
B7 | 136 | no binding | 166 | 1230 |  |  |  |  |  | 45.5 | 41.4
B8 | 90.3 |  | 90.3 |  | no binding (tested: 5 ng/ml) |  |  |  |  | 37.9 | 39.6
B9 | 83.3 |  | 130 | 1110 | no binding (tested: 5 ng/ml) |  |  |  |  | 41.7 | 48
